Patent US20240102052A1 (VNV NEWCO, published 2024)

B1: PNMA2 C136S mutant (other)
chain: MALALLEDWCRIMSVDEQKSLMVTGIPADFEEAEIQEVLQETLKSLGRYRLLGKIFRKQENANAVLLELLEDTDVSAIPSEVQGKGGVWKVIFKTPNQDTEFLERLNLFLEKEGQTVSGMFRALGQEGVSPATVPSISPELLAHLLGQAMAHAPQPLLPMRYRKLRVFSGSAVPAPEEESFEVWLEQATEIVKEWPVTEAEKKRWLAESLRGPALDLMHIVQADNPSISVEECLEAFKQVFGSLESRRTAQVRYLKTYQEEGEKVSAYVLRLETLLRRAVEKRAIPRRIADQVRLEQVMAGATLNQMLWCRLRELKDQGPPPSFLELMKVIREEEEEEASFENESIEEPEERDGYGRWNHEGDD
B2: PNMA2 C233S mutant (other)
chain: MALALLEDWCRIMSVDEQKSLMVTGIPADFEEAEIQEVLQETLKSLGRYRLLGKIFRKQENANAVLLELLEDTDVSAIPSEVQGKGGVWKVIFKTPNQDTEFLERLNLFLEKEGQTVSGMFRALGQEGVSPATVPCISPELLAHLLGQAMAHAPQPLLPMRYRKLRVFSGSAVPAPEEESFEVWLEQATEIVKEWPVTEAEKKRWLAESLRGPALDLMHIVQADNPSISVEESLEAFKQVFGSLESRRTAQVRYLKTYQEEGEKVSAYVLRLETLLRRAVEKRAIPRRIADQVRLEQVMAGATLNQMLWCRLRELKDQGPPPSFLELMKVIREEEEEEASFENESIEEPEERDGYGRWNHEGDD
B3: PNMA2 C10S mutant (other)
chain: MALALLEDWSRIMSVDEQKSLMVTGIPADFEEAEIQEVLQETLKSLGRYRLLGKIFRKQENANAVLLELLEDTDVSAIPSEVQGKGGVWKVIFKTPNQDTEFLERLNLFLEKEGQTVSGMFRALGQEGVSPATVPCISPELLAHLLGQAMAHAPQPLLPMRYRKLRVFSGSAVPAPEEESFEVWLEQATEIVKEWPVTEAEKKRWLAESLRGPALDLMHIVQADNPSISVEECLEAFKQVFGSLESRRTAQVRYLKTYQEEGEKVSAYVLRLETLLRRAVEKRAIPRRIADQVRLEQVMAGATLNQMLWCRLRELKDQGPPPSFLELMKVIREEEEEEASFENESIEEPEERDGYGRWNHEGDD
B4: PNMA2 C310S mutant (other)
chain: MALALLEDWCRIMSVDEQKSLMVTGIPADFEEAEIQEVLQETLKSLGRYRLLGKIFRKQENANAVLLELLEDTDVSAIPSEVQGKGGVWKVIFKTPNQDTEFLERLNLFLEKEGQTVSGMFRALGQEGVSPATVPCISPELLAHLLGQAMAHAPQPLLPMRYRKLRVFSGSAVPAPEEESFEVWLEQATEIVKEWPVTEAEKKRWLAESLRGPALDLMHIVQADNPSISVEECLEAFKQVFGSLESRRTAQVRYLKTYQEEGEKVSAYVLRLETLLRRAVEKRAIPRRIADQVRLEQVMAGATLNQMLWSRLRELKDQGPPPSFLELMKVIREEEEEEASFENESIEEPEERDGYGRWNHEGDD
B5: wild type PNMA2 (other)
chain: MALALLEDWCRIMSVDEQKSLMVTGIPADFEEAEIQEVLQETLKSLGRYRLLGKIFRKQENANAVLLELLEDTDVSAIPSEVQGKGGVWKVIFKTPNQDTEFLERLNLFLEKEGQTVSGMFRALGQEGVSPATVPCISPELLAHLLGQAMAHAPQPLLPMRYRKLRVFSGSAVPAPEEESFEVWLEQATEIVKEWPVTEAEKKRWLAESLRGPALDLMHIVQADNPSISVEECLEAFKQVFGSLESRRTAQVRYLKTYQEEGEKVSAYVLRLETLLRRAVEKRAIPRRIADQVRLEQVMAGATLNQMLWCRLRELKDQGPPPSFLELMKVIREEEEEEASFENESIEEPEERDGYGRWNHEGDD
notes: Self-associating capsid subunit

Molecular target: the molecule itself
Assay: SDS-PAGE and western blot, self-association

Protein | binding result
B1 | binds
B2 | binds
B3 | binds
B4 | binds
B5 | binds
